Molecular target: PmMOR (Plantago major multisubstrate oxido-reductase) (Plantago major)
Assay: SEC; Superdex 200, 20 mM Tris pH 8.0, 100 mM NaCl, 1 mM TCEP; oligomeric state judged from the elution volume

“PmMOR (Plantago major multisubstrate oxido-reductase) (enzyme)” was tested. Which stoichiometry N did it give?
Its stoichiometry N is 2.
